In patent publication US20190389961A1 (INNATE PHARMA, published 2019):

T1: human CD39 mutant 15 (human, UniProt P49961 1-510)
T1 construct: Expressed on Hek-293T cells; also called M15
T1 chain: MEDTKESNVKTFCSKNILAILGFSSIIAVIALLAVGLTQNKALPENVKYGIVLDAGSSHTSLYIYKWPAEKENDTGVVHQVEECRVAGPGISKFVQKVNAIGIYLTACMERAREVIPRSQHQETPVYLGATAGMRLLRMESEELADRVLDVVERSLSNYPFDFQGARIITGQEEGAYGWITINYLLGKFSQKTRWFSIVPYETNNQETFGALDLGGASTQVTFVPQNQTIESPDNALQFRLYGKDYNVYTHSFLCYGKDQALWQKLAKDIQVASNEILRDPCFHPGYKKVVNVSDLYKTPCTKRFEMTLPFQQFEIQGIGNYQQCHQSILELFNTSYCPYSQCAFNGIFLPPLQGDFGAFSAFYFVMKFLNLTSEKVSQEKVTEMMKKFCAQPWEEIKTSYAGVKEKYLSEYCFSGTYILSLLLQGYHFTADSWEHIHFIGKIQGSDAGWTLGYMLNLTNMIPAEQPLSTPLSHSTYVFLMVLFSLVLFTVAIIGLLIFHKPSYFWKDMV

T2: human CD39 mutant 19 (human, UniProt P49961 1-510)
T2 construct: Expressed on Hek-293T cells; also called M19
T2 chain: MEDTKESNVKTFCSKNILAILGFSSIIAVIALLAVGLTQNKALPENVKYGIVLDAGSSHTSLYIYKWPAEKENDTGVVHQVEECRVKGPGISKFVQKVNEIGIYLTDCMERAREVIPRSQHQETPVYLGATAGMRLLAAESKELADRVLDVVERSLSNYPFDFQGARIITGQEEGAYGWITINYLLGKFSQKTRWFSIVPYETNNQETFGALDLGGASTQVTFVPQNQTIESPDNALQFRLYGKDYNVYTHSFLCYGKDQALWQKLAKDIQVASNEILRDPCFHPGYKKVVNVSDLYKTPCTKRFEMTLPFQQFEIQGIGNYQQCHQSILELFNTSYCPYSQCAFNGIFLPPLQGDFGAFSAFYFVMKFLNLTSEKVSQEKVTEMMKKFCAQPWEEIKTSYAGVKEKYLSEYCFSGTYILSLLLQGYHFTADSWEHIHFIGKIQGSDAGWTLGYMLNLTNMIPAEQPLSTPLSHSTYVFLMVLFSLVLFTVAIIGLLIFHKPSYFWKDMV

T3: human CD39 (vascular CD39, NTPDase1) expressed at the surface of cells (human, UniProt P49961 1-510)
T3 construct: also called huCD39; CHO-huCD39
T3 sequence: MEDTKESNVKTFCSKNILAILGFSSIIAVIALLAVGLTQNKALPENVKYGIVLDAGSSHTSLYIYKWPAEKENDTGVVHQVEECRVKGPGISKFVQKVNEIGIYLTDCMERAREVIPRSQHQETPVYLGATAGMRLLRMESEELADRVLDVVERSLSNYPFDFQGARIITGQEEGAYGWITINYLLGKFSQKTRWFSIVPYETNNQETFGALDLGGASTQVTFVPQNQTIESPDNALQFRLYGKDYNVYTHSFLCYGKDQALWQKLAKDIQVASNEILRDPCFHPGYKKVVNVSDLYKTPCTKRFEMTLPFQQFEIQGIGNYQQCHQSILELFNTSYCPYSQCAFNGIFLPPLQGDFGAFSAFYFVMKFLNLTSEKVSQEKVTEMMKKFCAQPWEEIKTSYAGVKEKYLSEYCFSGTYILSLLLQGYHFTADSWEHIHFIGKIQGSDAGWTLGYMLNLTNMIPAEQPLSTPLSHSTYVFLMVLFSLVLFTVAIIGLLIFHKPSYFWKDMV

T4: human CD39 mutant 5 (human, UniProt P49961 1-510)
T4 construct: Expressed on Hek-293T cells; also called M5
T4 chain: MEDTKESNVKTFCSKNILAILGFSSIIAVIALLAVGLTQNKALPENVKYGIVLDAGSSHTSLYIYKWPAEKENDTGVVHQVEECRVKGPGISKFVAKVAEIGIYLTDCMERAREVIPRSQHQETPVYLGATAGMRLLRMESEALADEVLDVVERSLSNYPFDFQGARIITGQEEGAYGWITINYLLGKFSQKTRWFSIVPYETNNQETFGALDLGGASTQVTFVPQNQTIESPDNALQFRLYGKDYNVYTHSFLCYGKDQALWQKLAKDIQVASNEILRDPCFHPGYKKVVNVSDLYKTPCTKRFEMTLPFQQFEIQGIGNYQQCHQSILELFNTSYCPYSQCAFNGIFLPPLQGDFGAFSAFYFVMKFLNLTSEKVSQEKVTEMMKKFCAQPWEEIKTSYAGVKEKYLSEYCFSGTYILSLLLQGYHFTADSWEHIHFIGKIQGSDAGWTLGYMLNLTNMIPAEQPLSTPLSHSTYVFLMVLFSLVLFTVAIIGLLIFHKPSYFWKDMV

T5: human CD39 mutant 11 (human, UniProt P49961 1-510)
T5 construct: Expressed on Hek-293T cells
T5 sequence: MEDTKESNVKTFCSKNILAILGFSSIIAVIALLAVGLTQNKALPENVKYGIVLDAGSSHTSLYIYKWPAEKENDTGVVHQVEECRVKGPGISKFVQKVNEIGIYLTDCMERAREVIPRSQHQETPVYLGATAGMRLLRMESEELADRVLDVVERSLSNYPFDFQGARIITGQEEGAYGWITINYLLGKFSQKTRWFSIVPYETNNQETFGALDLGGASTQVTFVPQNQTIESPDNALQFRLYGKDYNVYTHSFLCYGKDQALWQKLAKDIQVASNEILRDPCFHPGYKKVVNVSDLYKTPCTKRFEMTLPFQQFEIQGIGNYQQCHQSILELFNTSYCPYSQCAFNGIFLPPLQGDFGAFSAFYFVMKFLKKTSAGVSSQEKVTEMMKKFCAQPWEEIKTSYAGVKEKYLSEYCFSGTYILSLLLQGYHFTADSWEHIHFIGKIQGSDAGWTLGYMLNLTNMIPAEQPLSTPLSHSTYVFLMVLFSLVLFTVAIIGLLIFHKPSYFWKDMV


Key:
[1] = molecular target: T1, human CD39 mutant 15; assay: flow cytometry on Hek-293T cells expressing CD39 mutant 15 (panel M15)
Procedure: (§1) In order to define the epitopes of the further anti-CD39 antibodies of Example 5, they were tested for loss of binding to the panel of CD39 mutants as described in Example 1 and Table 1. Mutants were transfected in Hek-293T cells, as shown in the table 1, using numbering of SEQ ID NO: 1.Dose-ranges of test antibodies (10-2.5-0.625-0.1563-0.0391-0.0098-0.0024-0.0006 μg/ml) are tested on the 20 generated mutants by flow cytometry.

[2] = molecular target: T2, human CD39 mutant 19; assay: flow cytometry on Hek-293T cells expressing CD39 mutant 19 (panel M19); unstained (US) median 8,98; antibody concentration not shown
Procedure: (§2) Mutants were transfected in Hek-293T cells, as shown in the table 1, using numbering of SEQ ID NO: 1. […] Mutant 19 includes substitutions at residues R138, M139 and E142.
as §1

[3] = molecular target: T3, human CD39 (vascular CD39, NTPDase1) …; assay: flow cytometry on Hek-293T cells expressing wild-type CD39 (panel WT); unstained (US) median 10,3; antibody concentration not shown
Procedure: as §2, §1

[4] = molecular target: T4, human CD39 mutant 5; assay: flow cytometry on Hek-293T cells expressing CD39 mutant 5 (panel M5); unstained (US) median 8,98; antibody concentration not shown
Procedure: as §2, §1

[5] = molecular target: T1, human CD39 mutant 15; assay: flow cytometry on Hek-293T cells expressing CD39 mutant 15 (panel M15); unstained (US) median 8,98; antibody concentration not shown
Procedure: as §2, §1

[6] = molecular target: T2, human CD39 mutant 19; assay: flow cytometry on Hek-293T cells expressing CD39 mutant 19 (panel M19)
Procedure: as §2, §1

[7] = molecular target: T4, human CD39 mutant 5; assay: flow cytometry on Hek-293T cells expressing CD39 mutant 5 (panel M5)
Procedure: as §1

[8] = molecular target: T1, human CD39 mutant 15; assay: flow cytometry, Hek-293T cells expressing the mutant
Procedure: as §1

[9] = molecular target: T2, human CD39 mutant 19; assay: as above
Procedure: as §1

[10] = molecular target: T4, human CD39 mutant 5; assay: as above
Procedure: as §1

[11] = molecular target: T5, human CD39 mutant 11; assay: as above
Procedure: as §1

Binder	binding result [1]	Median : Comp-Alexa Fluor 647-A [2]	Median : Comp-Alexa Fluor 647-A [3]	Median : Comp-Alexa Fluor 647-A [4]	Median : Comp-Alexa Fluor 647-A [5]	binding result [6]	binding result [7]	binding result [8]	binding result [9]	binding result [10]	binding result [11]
antibody I-396 (antibody, V domains shown) VH: EVQLQQSGAELVKPGASVKLSCIVSGFNIKDTYINWVKQRPEQGLEWIGRIDPANGNTKYDPKFQGKATMTSDTSSNTAYLHLSSLTSDDSAVYYCARWGYDDEEADYFDSWGQGTTLTVSS VL: not shown	no binding	8890	4340	8190	35.9	–	–	–	–	–	–
antibody I-395 (antibody, V domains shown) VH: EVQLQQSGPELVKPGASVRMSCKASGYTFTDYNMHWVKKNHGKGLEWIGYINPNNGGTTYNQKFKGKATLTVNTSSKTAYMELRSLTSEDSAVYYCTRGGTRFASWGQGTLVTVSA VL: not shown	–	15.4	4240	52.6	5750	no binding	no binding	–	–	–	–
antibody I-399 (antibody, V domains shown) VH: PVQLQQPGAEVVMPGASVKLSCKASGYTFTSFWMNWMRQRPGQGLEWIGEIDPSDFYTNSNQRFKGKATLTVDKSSSTAYMQLSSLTSEDSAVYFCARGDFGWYFDVWGTGTSVTVSS VL: EIVLTQSPTTMTSSPGEKITFTCSASSSINSNYLHWYQQKPGFSPKLLIYRTSNLASGVPTRFSGSGSGTSYSLTIGTMEAEDVATYYCQQGSSLPRTFGGGTKLEIK	–	–	–	–	–	–	–	binds	binds	binds	no binding (tested: dose range up to 10 µg/ml)
